Article PMC5177622, “Multivalent Histone and DNA Engagement by a PHD/BRD/PWWP Triple Reader Cassette Recruits ZMYND8 to K14ac-Rich Chromatin” (Cell Reports, 2016)

Biological target: Histone H3 acetylated at K14 (endogenous, HEK293), P68431
Assay: anti-FLAG immunoprecipitation and western blot, quantified
Settings: chain shown with the change; HEK293 cells transiently transfected; three biological replicates; anti-H3K14ac blot; parent: est. 1.0; read off a plot

B1: 3×FLAG-ZMYND8 full length, wild type, Q9ULU4-13 N228F (protein)
chain: MDISTRSKDPGSAERTAQKRKFPSPPHSSNGHSPQDTSTSPIKKKKKPGLLNSNNKEQSELRHGPFYYMKQPLTTDPVDVVPQDGRNDFYCWVCHREGQVLCCELCPRVYHAKCLRLTSEPEGDWFCPECEKITVAECIETQSKAMTMLTIEQLSYLLKFAIQKMKQPGTDAFQKPVPLEQHPDYAEYIFHPMDLCTLEKNAKKKMYGCTEAFLADAKWILHNCIIYFGGNHKLTQIAKVVIKICEHEMNEIEVCPECYLAACQKRDNWFCEPCSNPHPLVWAKLKGFPFWPAKALRDKDGQVDARFFGQHDRAWVPINNCYLMSKEIPFSVKKTKSIFNSAMQEMEVYVENIRRKFGVFNYSPFRTPYTPNSQYQMLLDPTNPSAGTAKIDKQEKVKLNFDMTASPKILMSKPVLSGGTGRRISLSDMPRSPMSTNSSVHTGSDVEQDAEKKATSSHFSASEESMDFLDKSTASPASTKTGQAGSLSGSPKPFSPQLSAPITTKTDKTSTTGSILNLNLDRSKAEMDLKELSESVQQQSTPVPLISPKRQIRSRFQLNLDKTIESCKAQLGINEISEDVYTAVEHSDSEDSEKSDSSDSEYISDDEQKSKNEPEDTEDKEGCQMDKEPSAVKKKPKPTNPVEIKEELKSTSPASEKADPGAVKDKASPEPEKDFSEKAKPSPHPIKDKLKGKDETDSPTVHLGLDSDSESELVIDLGEDHSGREGRKNKKEPKEPSPKQDVVGKTPPSTTVGSHSPPETPVLTRSSAQTSAAGATATTSTSSTVTVTAPAPAATGSPVKKQRPLLPKETAPAVQRVVWNSSSKFQTSSQKWHMQKMQRQQQQQQQQNQQQQPQSSQGTRYQTRQAVKAVQQKEITQSPSTSTITLVTSTQSSPLVTSSGSMSTLVSSVNADLPIATASADVAADIAKYTSKMMDAIKGTMTEIYNDLSKNTTGSTIAEIRRLRIEIEKLQWLHQQELSEMKHNLELTMAEMRQSLEQERDRLIAEVKKQLELEKQQAVDETKKKQWCANCKKEAIFYCCWNTSYCDYPCQQAHWPEHMKSCTQSATAPQQEADAEVNTETLNKSSQGSSSSTQSAPSETASASKEKETSAEKSKESGSTLDLSGSRETPSSILLGSNQGSDHSRSNKSSWSSSDEKRGSTRSDHNTSTSTKSLLPKESRLDTFWD
ratio to parent: 0.19
